From PMC10397247

Columns and labels:
Experiment in all cases: two-hybrid library CCmax;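 further: natural log of median RNA to DNA barcode read ratio; higher means stronger binding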
[1] = biological target: T1, 4H3915-AA; settings: mean of both orientations
T1 chain: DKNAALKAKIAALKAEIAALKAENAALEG

[2] = biological target: T2, 4H483-AA; settings: mean of both orientations
T2 chain: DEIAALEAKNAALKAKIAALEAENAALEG

[3] = biological target: T3, 4H_APH; settings: mean of both orientations
T3 chain: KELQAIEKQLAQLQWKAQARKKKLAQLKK

[4] = biological target: T4, 4H3381-AA; settings: mean of both orientations
T4 chain: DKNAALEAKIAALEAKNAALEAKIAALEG

[5] = biological target: 4H_GCN4
Chain of 4H_GCN4 (chain, as listed by the source): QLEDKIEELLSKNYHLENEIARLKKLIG

[6] = biological target: T5, 4H2903-AA; settings: mean of both orientations
T5 chain: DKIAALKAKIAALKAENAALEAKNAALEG

[7] = biological target: T6, 4H2947-AA; settings: mean of both orientations
T6 chain: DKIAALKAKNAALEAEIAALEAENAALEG

[8] = biological target: T7, 4H3049-AA; settings: mean of both orientations
T7 chain: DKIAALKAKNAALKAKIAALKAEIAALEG

[9] = biological target: T8, 4H2961-AA; settings: mean of both orientations
T8 chain: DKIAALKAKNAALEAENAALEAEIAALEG

[10] = biological target: T9, 4H56-AA; settings: mean of both orientations
T9 chain: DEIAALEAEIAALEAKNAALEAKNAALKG

[11] = biological target: T10, 4H452-AA; settings: mean of both orientations
T10 chain: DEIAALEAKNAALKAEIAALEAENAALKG

[12] = biological target: T11, 4H963-AA; settings: mean of both orientations
T11 chain: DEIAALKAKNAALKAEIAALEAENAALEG

[13] = biological target: T12, 4H3629-AA; settings: mean of both orientations
T12 chain: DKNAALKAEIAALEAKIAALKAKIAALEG

[14] = biological target: T13, 4H3595-AA; settings: mean of both orientations
T13 chain: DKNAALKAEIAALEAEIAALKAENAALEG

[15] = biological target: T14, 4H3438-AA; settings: mean of both orientations
T14 chain: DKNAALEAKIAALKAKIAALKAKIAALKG

[16] = biological target: T15, 4H3073-AA; settings: mean of both orientations
T15 chain: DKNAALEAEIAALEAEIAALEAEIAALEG

[17] = biological target: T16, 4H2774-AA
T16 chain: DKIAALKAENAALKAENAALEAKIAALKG

[18] = biological target: T17, 4H3449-AA; settings: mean of both orientations
T17 chain: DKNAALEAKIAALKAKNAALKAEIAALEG

[19] = biological target: T18, 4H446-AA; settings: mean of both orientations
T18 chain: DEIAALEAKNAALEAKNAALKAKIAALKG

[20] = biological target: T19, 4H324-AA; settings: mean of both orientations
T19 chain: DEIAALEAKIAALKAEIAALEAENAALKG

[21] = biological target: T20, 4H_BCR; settings: mean of both orientations
T20 chain: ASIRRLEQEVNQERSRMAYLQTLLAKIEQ

[22] = biological target: T21, 4H3340-AA; settings: mean of both orientations
T21 chain: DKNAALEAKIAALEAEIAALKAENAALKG

[23] = biological target: T22, 4H63-AA; settings: mean of both orientations
T22 chain: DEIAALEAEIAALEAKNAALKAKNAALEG

[24] = biological target: T23, 4H3777-AA; settings: mean of both orientations
T23 chain: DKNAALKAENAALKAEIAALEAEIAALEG

[25] = biological target: T24, 4H3782-AA; settings: mean of both orientations
T24 chain: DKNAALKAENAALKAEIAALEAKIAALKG

[26] = biological target: T25, 4H3001-AA; settings: mean of both orientations
T25 chain: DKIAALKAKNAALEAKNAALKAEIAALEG

[27] = biological target: T26, 4H3094-AA; settings: mean of both orientations
T26 chain: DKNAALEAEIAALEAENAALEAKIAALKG

[28] = biological target: T27, 4H3493-AA; settings: mean of both orientations
T27 chain: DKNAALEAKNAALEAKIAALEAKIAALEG

[29] = biological target: T28, 4H3619-AA; settings: mean of both orientations
T28 chain: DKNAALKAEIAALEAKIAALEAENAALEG

[30] = biological target: T29, 4H341-AA; settings: mean of both orientations
T29 chain: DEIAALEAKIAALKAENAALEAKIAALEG

[31] = biological target: T30, 4H380-AA; settings: mean of both orientations
T30 chain: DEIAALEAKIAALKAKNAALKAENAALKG

[32] = biological target: T31, 4H2931-AA; settings: mean of both orientations
T31 chain: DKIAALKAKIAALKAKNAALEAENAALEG

[33] = biological target: T32, 4H376-AA; settings: mean of both orientations
T32 chain: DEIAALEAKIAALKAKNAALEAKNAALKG

[34] = biological target: T33, 4H3015-AA; settings: mean of both orientations
T33 chain: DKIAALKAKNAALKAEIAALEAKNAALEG

[35] = biological target: T34, 4H347-AA; settings: mean of both orientations
T34 chain: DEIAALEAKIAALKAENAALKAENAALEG

[36] = biological target: T35, 4H464-AA; settings: mean of both orientations
T35 chain: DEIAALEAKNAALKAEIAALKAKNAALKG

[37] = biological target: T36, 4H3969-AA; settings: mean of both orientations
T36 chain: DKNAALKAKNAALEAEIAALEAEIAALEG

[38] = biological target: T37, 4H3974-AA; settings: mean of both orientations
T37 chain: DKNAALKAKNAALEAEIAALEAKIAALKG

[39] = biological target: T38, 4H688-AA; settings: mean of both orientations
T38 chain: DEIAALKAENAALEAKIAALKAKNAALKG

[40] = biological target: T39, 4H3414-AA; settings: mean of both orientations
T39 chain: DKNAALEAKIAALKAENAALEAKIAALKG

[41] = biological target: T40, 4H432-AA; settings: mean of both orientations
T40 chain: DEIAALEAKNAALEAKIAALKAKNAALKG

[42] = biological target: T41, 4H406-AA; settings: mean of both orientations
T41 chain: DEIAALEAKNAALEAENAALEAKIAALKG

[43] = biological target: GCN2_T
[44] = biological target: T42, 4H3939-AA; settings: mean of both orientations
T42 chain: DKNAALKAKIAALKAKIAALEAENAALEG

[45] = biological target: T43, 4H3129-AA; settings: mean of both orientations
T43 chain: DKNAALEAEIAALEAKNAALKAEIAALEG

B1: 4H2774-AA (peptide)
chain: DKIAALKAENAALKAENAALEAKIAALKG
How did the interaction score [1] turn out when B1 was run?
The interaction score was -1.36.

And the interaction score [2]?
The interaction score was -1.21.

And the interaction score [3]?
The interaction score was -1.61.

What about the interaction score [4] of the same binder?
Its interaction score is -1.61.

And the interaction score [5]?
Its interaction score is -2.24.

And the interaction score [6]?
Its interaction score is -1.73.

What about the interaction score [7] of the same binder?
Its interaction score is -1.7.

What about the interaction score [8] of the same binder?
The interaction score was 1.59.

And the interaction score [9]?
Its interaction score is -0.737.

And the interaction score [10]?
The interaction score was -1.47.

What about the interaction score [11] of the same binder?
The interaction score was -0.902.

What about the interaction score [12] of the same binder?
The interaction score was -0.529.

What about the interaction score [13] of the same binder?
The interaction score was -1.34.

And the interaction score [14]?
The interaction score was -1.57.

And the interaction score [15]?
The interaction score was -1.63.

What about the interaction score [16] of the same binder?
Its interaction score is -1.43.

What about the interaction score [17] of the same binder?
The interaction score was 1.65.

And the interaction score [18]?
The interaction score was -0.756.

And the interaction score [19]?
Its interaction score is 1.28.

What about the interaction score [20] of the same binder?
The interaction score was -1.75.

And the interaction score [21]?
The interaction score was -0.289.

What about the interaction score [22] of the same binder?
Its interaction score is -1.59.

What about the interaction score [23] of the same binder?
The interaction score was -1.37.

What about the interaction score [24] of the same binder?
The interaction score was -0.668.

And the interaction score [25]?
Its interaction score is -1.14.

What about the interaction score [26] of the same binder?
The interaction score was 0.364.

And the interaction score [27]?
Its interaction score is -0.282.

And the interaction score [28]?
The interaction score was -1.56.

What about the interaction score [29] of the same binder?
Its interaction score is -1.75.

And the interaction score [30]?
Its interaction score is 0.103.

And the interaction score [31]?
Its interaction score is -1.68.

What about the interaction score [32] of the same binder?
The interaction score was -1.98.

And the interaction score [33]?
Its interaction score is -2.64.

What about the interaction score [34] of the same binder?
Its interaction score is -1.48.

What about the interaction score [35] of the same binder?
Its interaction score is -0.921.

What about the interaction score [36] of the same binder?
The interaction score was -1.18.

What about the interaction score [37] of the same binder?
Its interaction score is -1.72.

And the interaction score [38]?
Its interaction score is -0.913.

And the interaction score [39]?
Its interaction score is -0.923.

And the interaction score [40]?
Its interaction score is -1.5.

And the interaction score [41]?
The interaction score was -1.57.

What about the interaction score [42] of the same binder?
Its interaction score is -0.207.

What about the interaction score [43] of the same binder?
Its interaction score is -1.68.

What about the interaction score [44] of the same binder?
Its interaction score is -1.9.

What about the interaction score [45] of the same binder?
The interaction score was -0.715.
